The domain aggregation screens of Martell et al. (2025)

Test: soluble fraction after stress (log2 fold change); higher = more stays soluble; pooled small domains, quantitative proteomics
Details: stress: pH 4
In short: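 Custom libraries of small protein domains were pooled and exposed to pH 4. High-throughput quantitative proteomics then measured the log2 fold change in the amount of each domain still soluble, with higher values meaning more stayed soluble. This soluble-fraction fold change stands for aggregation propensity.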

Sequence	soluble fraction (log2)
HMARPLLSPREQDVLALIARGFSYSEVARLQAVTVHTIRTHIRNLYAKLSVHSKTEAVFEATRMGLLP	-0.569
HMPAAPVFLQKDLLDAGLIGQADSAARREKLGKILGIGYGNGKVMLQRLNSFGIERDAFEQAVQE	-0.195
HMSYTPGQWVEASMPNATFFRIVPSGNATADKMLAVATPMKVISTSGTYVKVELDSGDVGFVPEIMV	0.102
HMSLEEIPLEERLGPGGLDPVAVYDSLPREMRDAFDSGSVSALREFVNALPAEDAARHMKAMVDSGLWVPT	-0.794
HMIADPLVINKLMDSMALAINDYNPDSVEPVLDELRQYFSENQLRELSKAMDDFDFDEALNALTLLRT	-0.619
HMADPAVLIAELFRAMPEKRFSVKNLISATGAETREQKDYVREVVHSLSREGMIEQVAEGKYRLSASE	0.241
HMSSLTQREYEIAELVADGLSNKAIAAELSISHTTAARHVANIMNKLGFNSRSQIAAWVADRAQG	-0.46
HMETLEDHRKKTRQQLFDALSHLLQTSTFESLTMAKIAEEAGVGRTAVYNHFQDKEALLLAFITYETGQ	-0.815
HMSEQSEALRTGLDQLPINQRTALTLFHLHELNQSEVAKIMNISVGAVESLLFRGRQKMKQLLTSD	-0.157
HMNEMEWVAKLIDQLPERERMILQLREIEQYEFDQIASLMEIPEGTVRVYLSRIRKKIKKQFIEIQSH	-0.405
HMEADERRNEILDAAETLITEKGYSKTTIIDILNQVGIAKGTFYYYFKSKEEVMDAIIERFI	-1.33
HMFEDYLRMKGLSIVSFSKQTGIPISTLRNLNKIRYDKWKIRYLEELSNVLNKTIQEIIEELKNMG	-1.32
HMNPGNTESFPVYQKRLGEIIQTLAGKKGQDINSPEVKELVGEYDFLTKQMFQLPDATSMVMEIATAYRN	-0.224
HMDFPYISGIEIAAIKNREFIRIETDKAQEIAIALDKSGIPFSARFSDAEMVLTYDGSYKEQVEDIIAKA	-0.808
HMAGTGKVNTGVANVRSGPGTNYEISGKIYADTEVSILETSNGWYKIKFGNLTGWMSGTVLDIK	-0.0124
HMQKIYTIARGDTLSHIVAGTLKQQGIAYTTGELYRLVNVVAQYNDILNPNRIYTGHQLDLTPLYSED	-0.434
HMTGGIWVQIQGAVERPGVYSLPRDSRLKDLLEAAGGFGRDADTEKVNQAARLEDGAMYRVPRQGEG	0.164
HMKLIIVPNLVGQSRRSVEISLQQIGLRIDTVYTEFNPDYPKGTVAWQFPKSGDHIKKGMGLQITVSQG	0.22
HMAEAIVMSTAAPVKSSPDPQSKDIFVLHEGTKVAVGDSLGDWREIRIADGNKGWVLVSAIEMI	-0.173
HMKELTYSDFRKAYPDIQGNLFGMAERYITALDWTEVAAKVETDEELRKERDIFYLVKTYIRKYVQ	-0.695
HMEPEAKIDFILKAAQKRLGLYGYEKTTMQEIAADINMSKAALYYYFPDKESLFKAVVENEQEEYFH	-1.24
HMSPAPVSVDHLAFPTRDLEATDHFYSKVVGATLVHAESGYSPSWKSDYLLITYALPDGTRLSFFDWP	-0.133
HMGSFAADVGRMVRLGRAKRGISRRKLAADSGISERYLAQIEGGQGNPSVNVLKAIADAISVPVFELLPH	-0.197
HMAPAPDEAFAEFVRSSAPSLTRTAWLLTGDRGHAQDLVQNAYAKTLQAWGRLDAEGALAYTRRAVIT	-0.0327
HMSDIISEIESQVMFKLATYEITNATEKMIEALINSEINDRRTLGFPIPNEQGRIFLVRSIQNKLAV	-1.54
HMDSESGAIIRRAVAQLAPKFRSTIVLRLIEGYSTEETAQILQLPVGTVLSRLARAKVQLMNLLTPYKEL	-0.0277

Sequence	soluble fraction (log2)
HMFAVPAPEVDDILSEKKVDVLLLGPQVRYLLEQFTEKLKDKNIPIGVIPMVDYGMMNGSKVLALAEELIG	-0.288
HMEVNLEPLIALLRKHRDLDLSGYSKSTLGRRITYFMGLNKISSIDELGRRLAEDDLLFQEFLDKLT	-0.818
HMENSLLSESLAKIYIKTHRYERAYEILSRLSLAVPEKNAYFADQLRFLRKVMLAESFRKQHS	0.22
HMENQFNDWSLTPSEKEVALFMLKGLSTQEIAAARNTKEKTVRQQASAVYAKSQLDGRYALAAWFFEDI	-1.04
HMGQISLSVNAIPEKAEVILDGNSIGNTPIRKNTITPGSHMFEIEKKGYAPISYDIYVNPSKAINLDFFM	-0.153
HMEDEISLGAINVPRGSVIVTAGGARLVEGSDYTVDYYSGTVKILNKSLLDAGTPINVSLET	-0.0859
HMVRDGDTFVVPKMDRFARNVEDTLHLVRELTERGVIFQMGHTVYDPHDPWSKLFLTFLAAIAEA	0.191
HMAEPLMTQIVEIEYADAEGLRENLEQFLTRLDEKTLLGSVLVDRHTNSLIIQAVRSDLERMLPLIETLDR	-1.49
HMEFQEQLYRLRKQAGLSQEELSHIIGVSRQAVQKWEAGSARPDLDNLIALASHFKLSLDQLVGLT	-0.125
HMDEWDPAILYVGLDYEDAAQIATRLATSGVPYRLSPDGTMITVPDDQVNNMRLTLAGEGFPH	-1.12
HMERMTSTEILTRDFLTTNSKIVKKSTIEELSEIIHVSPATIIRTVKKMGYSGFSEYKNELINQ	0.0482
HMGFSKGKRDLIRMIKLAIRELADDNGRAQIEDVITRLVQEGHSRDEIRLQIDMFLRQGEAMEPKQGIIKL	-0.891
HMSPFYALDEVDSFLDGVNVERLAALIARQAEQAQFLVVSHRRPMIGASTRTIGVTQARGAHTQVVGLP	-0.872
HMSDPELNDNEKKIYDIIFNKKSMDLTELKNLSELSNKQWDKGIKSLSKQDFVKVIKTEEALIVELV	-0.126
HMDEKSGWLHLAPHEGALRAALYAEHAVQEERTAPDGSQWLRLVLREKHYHQIQSKYNRRLTLHTQPDPS	≥ 0.43
HMAPLRTQYVNVNYANAAEIKTLISGADKEVGSLLSERGSVVVDKRTNTLIIQDTQARLNDIGDLIEQLD	-0.52
HMDEVHYLADKERGTTWEEILIHADRDIKFLSLSATINNKNEFLEWLVSLRGTTSLIHSSTRPIPLEI	-0.682
HMANPFQELTERELDVLRQVAAGKNNREIAEALFIGEKTVKTHISNILSKLHLADRTQAAVYAWQQGMM	-1.14
HMEKTLAERVNDILAEIKMTKQELAMQLNISRSAVSQYLNGKYSSNPEAIEARLRDFVSSYDRG	-0.243
HMLETIDIFKVTGGEPFLSKDFLEILDLAIEKDLAKNITLMITTNASKFVKKILDKFIHFKRVEFTVS	-1.05
HMIIIMKPNASEEAVRKVTHIIESKGLQVHLSKGSQVTIVGVVGDKTRLQGSNIEISEGVDKVVAVT	-0.0906
HMGAAVEVISLRYRSAAELLPIVRSLLSTEGKISADERTNSLIIVDSDEAVARVIHSLATLDT	-0.851
HMARIDYHAMDSDDLSFSEGELLEIYDKPGSFWWKGRSLVSGDEGDIPS	-1.15
HMKGKWKPIILWQLSKAPQSLSGLRHSIAGISQKMLIQHLNELIHFGFVVRTTFEGYPLKVEYDLTDRGR	-0.251
HMTNPPTPADTLFNTVRGVLQSILKSPMKDTEVASALNVSKAQARSWLQRLSDEGLIEKRKNPTAYVL	-0.321
HMKEEVMVPNVVGKELSAALLEMQVKELYPKLQLKYSNFVDDKGTVLEQSPPAGSIVKAGRRINLVVSRGA	0.0708

Sequence	soluble fraction (log2)
HMSIGLEGFVGKLGISTSDLRPSGWGEFDAKKLFVVTEGEFVDRKEKIEILSVDGNRILVRKIS	-0.471
HMNIAAVIGQTGVLQDDLKAGEQGTVKADNKLWTAVLAEGEEAVKKEERVDIVAVEGVKLIVRRNI	-1.14
HMNILVAISDTGEIWINKRRVDARAVQANIERLHAENPQGTVVIQADKQATTETLIKVMDASRAAGVFDVS	-0.759
HMDLPAEFSKPELETLFKRGKQSGELSLTEVRDALEAAQLPNKKTQTKVLKVLSDNAIHVLMDG	0.0785
HMSVLLKEEGSLQLARHGAAYFIIYSAQEHPNQRRHLKISEEESNRIMEGTPIEEIFLAYSG	-0.972
HMQNAETPDVAAEFRTWTSADGQFQVIAKLVKLDGESVHLERQDDGRQIAVPLGKLSSEDRLFLRGVRP	-0.0636
HMTKTKADKIDYAIGDSGTEPPTEDKWTDLAHLPLIKAGQFQWTRRTEYYSDGSTAVSYNIAKSE	0.156
HMVDLLDETLIEFYAFANNLIKDLETNSEKYGGMSQFEKELIFNEQITQYQRKLKIDLQDEVG	-1.39
HMGVTVDEVHRNFESGMNVVHKKFGAGVVDSFDEGKIRINFDGVIKVFIADVLINSGMLESVSYTH	-0.922
HMVGKGASIILDRVNLPQYLEKFNEDGFDTIESLKNLNEIDLKEMGVKKGHIRVILNYLHEEY	-0.48
HMGGPRDVPYSTFLIEVEKGQVAEVTIQDHKITGTYKNSNEPFITNAPDDPDLVSRLIKYGVGVQAKPPE	0.0182
HMSVFGMEIGKTTEAEAGRMYRLNKEQLNPYSGGYQYSVNPKAIDFSGLEQVTLIFDEKKVLVYVQAV	-0.179
HMKNNITFSEFLHEVDNGRVIKVNIQGNNITGILADGKSFNTYTPNDPSLIEKLTSKGVSISATPI	0.127
HMNIDNTWQPSEDVVEILTRSGINEDFINELIPEFIVYWTERPGTLVSYNSKFIEHVRLKWAQHSAEI	-1.04
HMHNPSYDMSKDVDILVMKFRDYNNLTDDEARFLLDKAKDAYYNTGKEILSDNEYDTLEKSLGQE	-1.17
HMATRAEQMAKTHQAILDTARELFLRNGYDATSTRDIANAIGITQPALYHHFKDKEVIFLAVI	0.101
HMSDYVLLYSGLNTSDTTFLAYSFQEKGIRYKMPNPDEIEVRVQDVDQARRIAAGAQLGGQVS	-0.297
HMIMTIYEYIARNNPTGAKRVIESFGYVVTQPKKMGDNLRMLVAQEGEPALKAVVDLHPDKDLILEV	-1.93
HMKYLREEDYLPIGSIIRLDDRNFRVDHVNFMFKSVSLQDMDLTNSGQPIFRSESLPHIRELYEQQQNELV	-1.09
HMVFTEEEMLEKIKEYLSTNSYINRRAMETLFNLRQSTALKWLGHFTEIGVLRKEGERNYPVYFLNN	-0.159
HMGNWEQQLRSWADGELATGKQDILTTAVPAFERALIETALSHTNGRKRDAAELLGWGRNTLTRKLKELGM	-0.46
HMNFKNMIDSLSGILFKKDPSAAIIDIGGVRLKVFITVGSYEQLPAKGEQVEILTYLHVKEDILNLYG	-0.819
HMAPDNDELEKAKKIVNAFIEAKAKGLGVVSLGTKMIDAPVVKRAQKIIDQTIVMGKLSLNWQDEFFN	-0.32
HMAVDVNKATAAELDSIKGIGPAISAKILEEKKKGGNFKDWNDLVTRVSGVGEANAAKFSSEGLTVGGAS	0.235
